Test [1] deals with T13 monophosphorylated Rad51 NTD peptide (human, UniProt Q06609, phosphothreonine at T13). Description: ITC. Background: Isothermal titration calorimetry measures the heat released or taken up as one component is titrated into another.
Test [2] has as its target T13/S14 diphosphorylated Rad51 NTD peptide (human, UniProt Q06609, phosphothreonine at T13; phosphoserine at S14). Description: ITC.

The source of these data is publication PMC3280358 (2012).

B1: Nbs1 (1-382) K160M (domain or fragment)
chain: MWKLLPAAGPAGGEPYRLLTGVEYVVGRKNCAILIENDQSISRNHAVLTANFSVTNLSQTDEIPVLTLKDNSKYGTFVNEEKMQNGFSRTLKSGDGITFGVFGSKFRIEYEPLVACSSCLDVSGKTALNQAILQLGGFTVNNWTEECTHLVMVSVKVTIMTICALICGRPIVKPEYFTEFLKAVESKKQPPQIESFYPPLDEPSIGSKNVDLSGRQERKQIFKGKTFIFLNAKQHKKLSSAVVFGGGEARLITEENEEEHNFFLAPGTCVVDTGITNSQTLIPDCQKKWIQSIMDMLQRQGLRPIPEAEIGLAVIFMTTKNYCDPQGHPSTGLKTTTPGPSLSQGVSVDEKLMPSAPVNTTTYVADTESEQADTWDLSERPK
In test [1], B1 gave a Kd of 24 µM.

B2: recombinant fragment of Nbs1 (residues 1-382), wild type (domain or fragment)
chain: MWKLLPAAGPAGGEPYRLLTGVEYVVGRKNCAILIENDQSISRNHAVLTANFSVTNLSQTDEIPVLTLKDNSKYGTFVNEEKMQNGFSRTLKSGDGITFGVFGSKFRIEYEPLVACSSCLDVSGKTALNQAILQLGGFTVNNWTEECTHLVMVSVKVTIKTICALICGRPIVKPEYFTEFLKAVESKKQPPQIESFYPPLDEPSIGSKNVDLSGRQERKQIFKGKTFIFLNAKQHKKLSSAVVFGGGEARLITEENEEEHNFFLAPGTCVVDTGITNSQTLIPDCQKKWIQSIMDMLQRQGLRPIPEAEIGLAVIFMTTKNYCDPQGHPSTGLKTTTPGPSLSQGVSVDEKLMPSAPVNTTTYVADTESEQADTWDLSERPK
Molecule B2 yielded a Kd in test [2] of 57 µM.

What is called Kd is the constant that tells how readily two partners part at equilibrium. A low value points to higher affinity.
